Test results as given in patent US20260275312, “CRISPR NUCLEASE POLYPEPTIDES AND GENE EDITING SYSTEMS COMPRISING SUCH” (ARBOR BIOTECHNOLOGIES, INC., published 2026).
Where a chain is given by its changes, count along the chain named.

Columns and labels:
Nuclease H L54R = target: T1, Nuclease H L54R (synthetic construct, L54R); experiment: cell_activity; HEK293T; PAM AAC; details: tags: N-term SV40 NLS, XTEN linker + C-term nucleoplasmin NLS
T1 chain: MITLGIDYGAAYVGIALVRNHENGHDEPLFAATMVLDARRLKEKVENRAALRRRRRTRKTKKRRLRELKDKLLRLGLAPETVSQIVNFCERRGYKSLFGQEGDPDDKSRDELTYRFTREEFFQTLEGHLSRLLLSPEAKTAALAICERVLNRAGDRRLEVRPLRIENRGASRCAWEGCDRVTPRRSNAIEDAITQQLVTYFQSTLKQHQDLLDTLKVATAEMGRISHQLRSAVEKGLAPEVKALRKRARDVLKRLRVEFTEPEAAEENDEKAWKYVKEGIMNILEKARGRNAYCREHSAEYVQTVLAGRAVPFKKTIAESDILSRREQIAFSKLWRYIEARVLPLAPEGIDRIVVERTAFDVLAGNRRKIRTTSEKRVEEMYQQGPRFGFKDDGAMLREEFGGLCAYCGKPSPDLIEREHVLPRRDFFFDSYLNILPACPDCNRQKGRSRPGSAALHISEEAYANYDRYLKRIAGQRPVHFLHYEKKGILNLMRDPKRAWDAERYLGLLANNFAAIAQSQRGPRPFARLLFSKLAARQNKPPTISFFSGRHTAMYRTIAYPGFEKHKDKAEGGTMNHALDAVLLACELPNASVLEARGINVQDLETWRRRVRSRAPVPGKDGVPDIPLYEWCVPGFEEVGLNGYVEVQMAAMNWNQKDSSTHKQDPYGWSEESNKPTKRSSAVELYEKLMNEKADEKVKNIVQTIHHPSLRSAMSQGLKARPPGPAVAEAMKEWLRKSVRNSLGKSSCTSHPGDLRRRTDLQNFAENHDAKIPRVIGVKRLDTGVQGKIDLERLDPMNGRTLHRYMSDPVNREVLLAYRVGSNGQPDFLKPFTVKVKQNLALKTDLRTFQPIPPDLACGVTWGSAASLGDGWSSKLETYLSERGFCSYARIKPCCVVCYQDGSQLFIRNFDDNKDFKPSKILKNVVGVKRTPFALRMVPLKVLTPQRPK
Procedure: (§1) HEK293T cells were transfected with plasmids expressing the Nuclease H polypeptides and the gRNAs provided herein following the methods provided in Example 1 above. Gene editing efficiencies were determined by NGS following the methods also provided in Example 1. The NGS results were analyzed also following the methods provided in Example 1 above.
(§2) Indel ratios, referring to the percentage of NGS reads comprising indels, were calculated for the reference and for each variant. The indel ratios used for fold change calculations were the average of two technical replicates. To then calculate fold change in indel ratios, the indel ratio for each variant was divided by the indel ratio for the reference. […] Numbering is relative to the reference nuclease of SEQ ID NO: 64 (i.e., without an NLS).

Nuclease H L323R = target: T2, Nuclease H L323R (synthetic construct, L323R); experiment: cell_activity; HEK293T; PAM AAC; details: tags: N-term SV40 NLS, XTEN linker + C-term nucleoplasmin NLS
T2 chain: T1 chain with R54L, L323R
Procedure: as §1, §2

B1: H AAVS1-T5 RNA guide ; AAVS1-T5 target (H) (ssRNA ; dsDNA)
RNA: GGCUAUAAUCCAUGCUGACCGUUUCAAUCAACCUGAUCUCUCUGCUUGCGCUGCAGGCUUCAUAAGAUCAGUAGGUUGAAAAGAGCAUCCGUCCGACAUGCACUCCGGGAUGGGGCAGUCCCGGCUCUUGCGGUUCCCGAUGCAGUUAUGUGUCCGCGGAACACGGUGUCGGACACGUCGCAAGACAGGAUGUGAGCCCAUUAUCCACAUUAGGAUCAAUGUACGCAUGAGCAGUCCGCAAUGCCGGGGACGCU
DNA 1: GGCTATAATCCATGCTGACC
DNA 2: GGTCAGCATGGATTATAGCC
- fold change in indel ratio vs reference (Nuclease H L54R): 16.6 fold indel vs reference
- fold change in indel ratio vs reference (Nuclease H L323R): 5.91 fold indel vs reference
